Assay results: patent US20260008815A1, “CYCLIC PEPTIDE OR SALT THEREOF, AND USES THEREOF” (FUJIFILM Corporation, priority 2023, published 2026)
Bridge positions count the residues as written; N and C are the ends. Ends that are not written are not given here. COCH2 = acetyl group that carries the bridge

Key:
[1] = molecular target: T1, Recombinant Human FGFR2 alpha (IIIc) Fc Chimera Protein (Homo sapiens, UniProt P21802); assay: SPR binding affinity of chemically synthesized cyclic peptide to immobilized FGFR; conditions: SPR binding amount at 10 nmol/L cyclic peptide, 25° C., per one molecule of FGFR; chemically synthesized product
T1 construct: Fc (chimera); purchased R&D systems 712-FR-050
Procedure: The binding affinity of the cyclic peptide to FGFR was evaluated using a surface plasmon resonance (SPR) method.
(§1) A CM5 sensor chip (Cytiva, 29149603) was set in Biacore-T200 (manufactured by Cytiva) which is a surface plasmon resonance device, and an HBS-EP buffer (Cytiva, BR100826) was added as a running buffer at a flow rate of 10 μL/min to equilibrate the flow channel. Next, 70 μL of a mixed aqueous solution of 0.2 mol/L 1-(3-dimethylaminopropyl)-3-ethylcarbodiimide (EDC) and 0.05 mol/L N-hydroxysuccinimide (NHS) was added to activate the sensor chip. Then, Recombinant Human FGFR2 alpha (IIIc) Fc Chimera Protein CF (R&D systems, 712-FR-050) prepared at 50 nmol/L in an Acetate 4.5 buffer (Cytiva, BR100350) was added thereto to perform immobilization at about 5000 RU. Thereafter, the blocking treatment was performed with an ethanolamine solution. In addition, in another flow channel of the same sensor chip, blocking treatment was performed immediately after activation without immobilizing FGFR.
A cyclic peptide diluted to 10 nmol/L using HBS-EP was added to each flow channel of the FGFR-immobilized sensor chip produced above at 25° C. for 10 minutes, then HBS-EP was allowed to flow as a running buffer for 30 minutes, and the binding of the cyclic peptide to FGFR was measured. Thereafter, a regeneration treatment of removing the bound cyclic peptide was performed by repeating the flow of a regeneration liquid in which sodium chloride powder was dissolved in Glysine 1.5 (Cytiva, BR100354) to a final concentration of 0.15 mol/L for 1 minute in each flow channel twice. The binding amount of the cyclic peptide was evaluated from the difference between the measured value of Biacore-T200 in the flow channel in which FGFR was immobilized and the measured value of Biacore-T200 in the flow channel in which FGFR was not immobilated, in a case where a 10 nmol/L cyclic peptide was allowed to flow.
The binding amount of the cyclic peptide evaluated above was normalized to the binding amount of the cyclic peptide molecules per one molecule of FGFR using the molecular weights of the cyclic peptide and FGFR, and the binding affinity to FGFR was evaluated according to the following evaluation criteria. The evaluation result preferably satisfies the evaluation criteria A, B, or C.

[2] = molecular target: T2, FGFR1 Protein, Human, Recombinant (His Tag) (Homo sapiens, UniProt P11362); assay: SPR FGFR versatility, peptide immobilized; conditions: SPR binding amount at 1 μmol/L FGFR, 25° C., per one molecule of immobilized cyclic peptide
T2 construct: His; purchased Sino Biological 10616-H08H
Procedure: (§2) The binding of the cyclic peptide to various types of FGFRs was evaluated using a surface plasmon resonance (SPR) method.
as §1, with “a cyclic peptide” for “Recombinant Human FGFR2 alpha (IIIc) Fc Chimera Protein CF (R&D systems, 712-FR-050)”, “to 2 mg/mL” for “at 50 nmol/L”, “HBS-EP” for “an Acetate 4.5”, “buffer” for “buffer (Cytiva, BR100350)”, “200” for “5000”
(§3) After various FGFRs (FGFR1 Protein, Human, Recombinant (His Tag) (Sino Biological, 10616-H08H), FGFR2 Protein, Human, Recombinant (His Tag) (Sino Biological, 10824-H08H), FGFR3 Protein, Human, Recombinant (ECD, His Tag) (Sino Biological, 16044-H08H), FGFR4 Protein, Human, Recombinant (His Tag) (Sino Biological, 10538-H08H)) diluted with HBS-EP to 1 μmol/L at 25° C. was added to each flow channel of the cyclic peptide-immobilized sensor chip prepared above, for 10 minutes, HBS-EP was allowed to flow as a running buffer for 30 minutes, and the binding of various FGFRs to the cyclic peptide was measured. Thereafter, a regeneration treatment of removing the bound FGFR was performed by repeating the flow of a regeneration liquid in which sodium chloride (final concentration: 0.4 mol/L) and a sodium dodecyl sulfate aqueous solution (mixed concentration: 1%, final concentration: 0.2%) were dissolved in Glysine 1.5 (Cytiva, BR100354) for 1 minute in each flow channel twice. The binding amount of the cyclic peptide was evaluated from the difference between the measured value of Biacore-T200 in the flow channel in which the cyclic peptide was immobilized and the measured value of Biacore-T200 in the flow channel in which the cyclic peptide was not immobilized, in a case where 1 μmol/L FGFR was allowed to flow.
(§4) The binding amount of FGFR evaluated above was normalized to the binding amount of FGFR molecules per one molecule of the cyclic peptide using the molecular weights of the cyclic peptide and FGFR, and the binding affinity to FGFR was evaluated according to the following evaluation criteria. The evaluation result preferably satisfies the evaluation criteria A, B, or C.

[3] = molecular target: T3, FGFR3 Protein, Human, Recombinant (ECD, His Tag) (Homo sapiens, UniProt P22607); assay: SPR FGFR versatility, peptide immobilized; conditions: SPR binding amount at 1 μmol/L FGFR, 25° C., per one molecule of immobilized cyclic peptide
T3 construct: FGFR3 Protein, Human, Recombinant (ECD, His Tag) (Sino Biological, 16044-H08H); His; purchased Sino Biological 16044-H08H
T3 sequence (P22607 23-375 limits assumed): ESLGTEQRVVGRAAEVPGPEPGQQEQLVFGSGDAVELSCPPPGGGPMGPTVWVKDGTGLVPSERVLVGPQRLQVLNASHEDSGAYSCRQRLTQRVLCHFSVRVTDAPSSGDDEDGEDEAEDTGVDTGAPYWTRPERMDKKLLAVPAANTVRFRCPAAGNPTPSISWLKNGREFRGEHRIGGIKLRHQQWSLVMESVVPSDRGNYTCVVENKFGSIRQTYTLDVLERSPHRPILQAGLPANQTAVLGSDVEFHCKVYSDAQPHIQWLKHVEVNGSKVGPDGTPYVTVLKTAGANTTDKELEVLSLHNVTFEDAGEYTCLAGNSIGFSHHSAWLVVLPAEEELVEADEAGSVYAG
Procedure: as §2
as §1, with “a cyclic peptide” for “Recombinant Human FGFR2 alpha (IIIc) Fc Chimera Protein CF (R&D systems, 712-FR-050)”, “to 2 mg/mL” for “at 50 nmol/L”, “HBS-EP” for “an Acetate 4.5”, “buffer” for “buffer (Cytiva, BR100350)”, “200” for “5000”
as §3, §4

[4] = molecular target: T4, FGFR4 Protein, Human, Recombinant (His Tag) (Homo sapiens, UniProt P22455); assay: SPR FGFR versatility, peptide immobilized; conditions: SPR binding amount at 1 μmol/L FGFR, 25° C., per one molecule of immobilized cyclic peptide
T4 construct: His; purchased Sino Biological 10538-H08H
Procedure: as §2
as §1, with “a cyclic peptide” for “Recombinant Human FGFR2 alpha (IIIc) Fc Chimera Protein CF (R&D systems, 712-FR-050)”, “to 2 mg/mL” for “at 50 nmol/L”, “HBS-EP” for “an Acetate 4.5”, “buffer” for “buffer (Cytiva, BR100350)”, “200” for “5000”
as §3, §4

[5] = molecular target: T5, FGFR2 Protein, Human, Recombinant (His Tag) (Homo sapiens, UniProt P21802); assay: SPR FGFR versatility, peptide immobilized; conditions: SPR binding amount at 1 μmol/L FGFR, 25° C., per one molecule of immobilized cyclic peptide
T5 construct: His; purchased Sino Biological 10824-H08H
Procedure: as §2
as §1, with “a cyclic peptide” for “Recombinant Human FGFR2 alpha (IIIc) Fc Chimera Protein CF (R&D systems, 712-FR-050)”, “to 2 mg/mL” for “at 50 nmol/L”, “HBS-EP” for “an Acetate 4.5”, “buffer” for “buffer (Cytiva, BR100350)”, “200” for “5000”
as §3, §4

[6] = Molecular stability after reducing agent (DTT) treatment, LC; assay type: physicochemical; conditions: residual rate after DTT aqueous solution, room temperature, 1 hour
Procedure: The molecular stability of the cyclic peptide was evaluated by analyzing an aqueous solution of the cyclic peptide treated with a reducing agent by liquid chromatography (LC).
The reducing agent treatment was performed under the following conditions based on the concentration of glutathione contained in the cells. 25 μL of a 0.2 mg/mL cyclic peptide aqueous solution was prepared, 58.8 μL of a 12.6 mmol/L DTT aqueous solution was added to the aqueous solution, and the mixture was incubated at room temperature for 1 hour to obtain an aqueous solution of the cyclic peptide treated with a reducing agent. The DTT aqueous solution was used by diluting a 1 mol/L (+−)-dithiothreitol (DTT) solution (FUJIFILM Wako Pure Chemical Corporation, 044-33871) with water. The total area of all the peaks in LC/MS of the cyclic peptide before the reducing agent treatment was set to 100%, and the proportion of the total area of all the peaks in LC/MS of the aqueous solution of the cyclic peptide treated with the reducing agent was determined to calculate the residual rate of the cyclic peptide, and the molecular stability was evaluated according to the following evaluation criteria. The evaluation result preferably satisfies the evaluation criteria A, B, or C.
The LC used for the evaluation of molecular stability was set to the following conditions. • LC device: Prominence series (pump, column oven, autosampler, detector) (manufactured by Shimadzu Corporation) • Detector: photodiode array detector (SPD-M20A), measurement wavelength of 280 nm • Column: TSKgel ODS-100V, inner diameter of 4.6 mm×length of 150 mm, particle diameter of 5 μm (manufactured by Tosoh Corporation) • Eluent A: solution containing 0.1% trifluoroacetic acid as solute, and solvent is 100% water • Eluent B: solution containing 0.1% trifluoroacetic acid as solute, and solvent is 100% acetonitrile • Flow rate: 1.0 mL/min • Injection amount: 25 μL • Gradient: 20% to 50%: Eluent B (0 to 15 minutes), 100%: Eluent B (15 minutes) • Column temperature: 40° C.

T4 sequence (P22455 22-802): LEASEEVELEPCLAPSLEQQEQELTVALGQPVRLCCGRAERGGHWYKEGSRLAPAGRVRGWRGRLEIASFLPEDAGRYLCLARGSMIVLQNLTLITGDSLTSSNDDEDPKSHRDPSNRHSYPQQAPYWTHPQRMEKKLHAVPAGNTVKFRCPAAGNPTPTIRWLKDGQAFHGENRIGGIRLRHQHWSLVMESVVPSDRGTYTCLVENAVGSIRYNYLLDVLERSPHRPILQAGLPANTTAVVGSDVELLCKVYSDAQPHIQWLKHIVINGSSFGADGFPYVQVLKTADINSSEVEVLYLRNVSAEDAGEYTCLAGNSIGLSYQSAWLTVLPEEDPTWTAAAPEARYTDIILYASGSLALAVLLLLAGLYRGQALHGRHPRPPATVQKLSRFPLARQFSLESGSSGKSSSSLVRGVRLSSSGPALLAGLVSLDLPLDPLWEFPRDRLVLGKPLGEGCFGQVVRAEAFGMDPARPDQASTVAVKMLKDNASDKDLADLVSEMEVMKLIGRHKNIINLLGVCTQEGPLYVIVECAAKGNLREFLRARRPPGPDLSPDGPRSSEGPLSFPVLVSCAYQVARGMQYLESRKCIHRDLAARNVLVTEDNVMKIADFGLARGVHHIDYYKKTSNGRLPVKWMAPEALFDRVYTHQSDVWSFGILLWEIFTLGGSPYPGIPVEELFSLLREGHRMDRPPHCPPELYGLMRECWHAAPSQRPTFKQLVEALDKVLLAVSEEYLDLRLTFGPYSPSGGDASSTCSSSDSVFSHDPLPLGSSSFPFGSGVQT
T2 sequence (P11362 22-822): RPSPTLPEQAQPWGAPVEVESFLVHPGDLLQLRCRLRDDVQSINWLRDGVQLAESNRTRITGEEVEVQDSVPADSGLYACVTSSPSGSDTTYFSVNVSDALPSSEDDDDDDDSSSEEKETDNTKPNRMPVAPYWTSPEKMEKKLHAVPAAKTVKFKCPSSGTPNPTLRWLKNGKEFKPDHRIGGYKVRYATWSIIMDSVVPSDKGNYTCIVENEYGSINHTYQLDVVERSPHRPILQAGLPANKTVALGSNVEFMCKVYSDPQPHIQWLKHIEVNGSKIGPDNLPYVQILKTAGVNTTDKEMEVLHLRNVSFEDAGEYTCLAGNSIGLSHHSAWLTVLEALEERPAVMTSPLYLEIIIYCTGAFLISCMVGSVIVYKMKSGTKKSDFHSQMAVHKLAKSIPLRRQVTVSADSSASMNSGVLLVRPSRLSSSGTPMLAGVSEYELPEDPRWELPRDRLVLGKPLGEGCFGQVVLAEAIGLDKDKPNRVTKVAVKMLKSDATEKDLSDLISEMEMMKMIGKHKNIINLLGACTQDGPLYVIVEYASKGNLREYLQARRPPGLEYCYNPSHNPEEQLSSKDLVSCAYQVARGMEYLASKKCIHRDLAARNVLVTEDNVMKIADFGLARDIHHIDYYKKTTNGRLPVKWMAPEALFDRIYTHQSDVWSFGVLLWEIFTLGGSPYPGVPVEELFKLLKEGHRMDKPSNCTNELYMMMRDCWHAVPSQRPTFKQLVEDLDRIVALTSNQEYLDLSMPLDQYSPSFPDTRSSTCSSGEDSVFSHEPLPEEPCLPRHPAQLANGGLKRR
T5 sequence (P21802 22-821): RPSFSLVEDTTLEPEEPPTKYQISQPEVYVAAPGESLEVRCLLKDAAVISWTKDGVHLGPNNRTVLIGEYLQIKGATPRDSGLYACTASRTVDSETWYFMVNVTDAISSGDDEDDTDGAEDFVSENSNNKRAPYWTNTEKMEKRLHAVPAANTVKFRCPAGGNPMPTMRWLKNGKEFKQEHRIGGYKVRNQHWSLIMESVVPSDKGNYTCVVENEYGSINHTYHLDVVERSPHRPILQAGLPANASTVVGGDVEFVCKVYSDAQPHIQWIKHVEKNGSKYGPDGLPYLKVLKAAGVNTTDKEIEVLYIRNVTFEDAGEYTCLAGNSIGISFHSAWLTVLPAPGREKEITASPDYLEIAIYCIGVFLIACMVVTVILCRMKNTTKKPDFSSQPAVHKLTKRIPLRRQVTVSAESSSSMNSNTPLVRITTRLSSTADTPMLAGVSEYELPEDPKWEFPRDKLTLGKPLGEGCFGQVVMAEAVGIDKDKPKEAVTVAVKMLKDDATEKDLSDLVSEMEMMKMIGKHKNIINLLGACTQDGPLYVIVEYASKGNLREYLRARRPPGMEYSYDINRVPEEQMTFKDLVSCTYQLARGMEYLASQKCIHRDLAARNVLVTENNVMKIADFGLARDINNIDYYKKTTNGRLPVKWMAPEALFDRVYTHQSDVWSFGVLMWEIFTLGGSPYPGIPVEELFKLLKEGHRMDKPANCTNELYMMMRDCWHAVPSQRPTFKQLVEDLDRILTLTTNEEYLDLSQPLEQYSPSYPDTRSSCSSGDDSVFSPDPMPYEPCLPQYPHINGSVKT
T1 sequence (P21802 with tags, fused parts or gaps limits assumed): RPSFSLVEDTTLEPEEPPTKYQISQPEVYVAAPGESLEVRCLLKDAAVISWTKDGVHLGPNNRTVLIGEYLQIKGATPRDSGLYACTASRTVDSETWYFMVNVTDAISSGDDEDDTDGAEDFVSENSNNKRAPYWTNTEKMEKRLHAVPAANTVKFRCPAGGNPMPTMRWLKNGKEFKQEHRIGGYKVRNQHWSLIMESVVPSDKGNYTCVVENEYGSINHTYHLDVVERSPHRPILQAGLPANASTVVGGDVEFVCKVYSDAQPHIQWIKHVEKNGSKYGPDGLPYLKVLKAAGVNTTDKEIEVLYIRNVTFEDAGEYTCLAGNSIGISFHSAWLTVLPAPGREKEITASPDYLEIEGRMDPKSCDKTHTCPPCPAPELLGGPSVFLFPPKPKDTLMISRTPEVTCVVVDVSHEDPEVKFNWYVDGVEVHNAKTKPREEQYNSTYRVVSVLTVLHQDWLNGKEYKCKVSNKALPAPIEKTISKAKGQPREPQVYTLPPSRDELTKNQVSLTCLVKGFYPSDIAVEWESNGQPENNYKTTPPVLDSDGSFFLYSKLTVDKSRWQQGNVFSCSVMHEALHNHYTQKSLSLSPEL

## 450 (YCEENYLDPEQYQYFIYFK(COCH2)YKKK; thioether 2-19) [compound 450]
[1]
  Evaluation result of binding affinity to FGFR: A (The binding amount is 0.7 molecules of the cyclic peptide/one molecule of FGFR or more.)
[2]
  Evaluation result of binding affinity to FGFR1: B (The binding amount is 0.01 molecules of FGFR/one molecule of the cyclic peptide or more and less than 0.05 molecules of FGFR/one molecule of the cyclic peptide.)
[3]
  Evaluation result of binding affinity to FGFR3: B (The binding amount is 0.01 molecules of FGFR/one molecule of the cyclic peptide or more and less than 0.05 molecules of FGFR/one molecule of the cyclic peptide.)
[4]
  Evaluation result of binding affinity to FGFR4: B (The binding amount is 0.01 molecules of FGFR/one molecule of the cyclic peptide or more and less than 0.05 molecules of FGFR/one molecule of the cyclic peptide.)
[5]
  Evaluation result of binding affinity F GFR2: A (The binding amount is 0.05 molecules of FGFR/one molecule of the cyclic peptide or more.)
[6]
  Evaluation result of reductive stability: B (The residual rate of the cyclic peptide is 70% or more and less than 90%)
